Reference: publication PMC8980801 (2022)
One block for each molecule: values may come before it.

What was measured:
[1] = biological target: FLAG-Fzd4-3C-sGFP1–10-PDZ (mouse | not stated) (UniProt Q61088); test: SEC; FLAG-Fzd4-sGFP1–10 and FLAG-Fzd4-sGFP11 coexpressed in Sf9, solubilised in DDM, M1 anti-FLAG eluate on Superose 6 to separate dimers from monomers; total protein compared with GFP fluorescence
[2] = biological target: T1, Fzd4–LRP6 heterodimer in biotinylated nanodiscs (mouse | human, UniProt Q61088 42-537; O75581 20-1439); test: BLI
T1 chain 1: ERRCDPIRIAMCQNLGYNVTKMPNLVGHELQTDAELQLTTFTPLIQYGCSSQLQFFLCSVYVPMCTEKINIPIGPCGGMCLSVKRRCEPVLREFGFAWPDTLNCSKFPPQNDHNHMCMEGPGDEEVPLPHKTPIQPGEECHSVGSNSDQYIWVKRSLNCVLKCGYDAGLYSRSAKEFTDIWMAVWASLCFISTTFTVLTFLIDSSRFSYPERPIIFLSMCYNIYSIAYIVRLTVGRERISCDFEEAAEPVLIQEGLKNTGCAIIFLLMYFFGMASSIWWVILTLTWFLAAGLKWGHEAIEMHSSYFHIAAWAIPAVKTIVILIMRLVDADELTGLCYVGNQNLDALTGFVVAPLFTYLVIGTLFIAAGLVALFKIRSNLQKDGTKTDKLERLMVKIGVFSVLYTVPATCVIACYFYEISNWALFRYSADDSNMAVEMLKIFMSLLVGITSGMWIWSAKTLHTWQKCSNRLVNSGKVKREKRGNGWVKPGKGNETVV
T1 chain 2: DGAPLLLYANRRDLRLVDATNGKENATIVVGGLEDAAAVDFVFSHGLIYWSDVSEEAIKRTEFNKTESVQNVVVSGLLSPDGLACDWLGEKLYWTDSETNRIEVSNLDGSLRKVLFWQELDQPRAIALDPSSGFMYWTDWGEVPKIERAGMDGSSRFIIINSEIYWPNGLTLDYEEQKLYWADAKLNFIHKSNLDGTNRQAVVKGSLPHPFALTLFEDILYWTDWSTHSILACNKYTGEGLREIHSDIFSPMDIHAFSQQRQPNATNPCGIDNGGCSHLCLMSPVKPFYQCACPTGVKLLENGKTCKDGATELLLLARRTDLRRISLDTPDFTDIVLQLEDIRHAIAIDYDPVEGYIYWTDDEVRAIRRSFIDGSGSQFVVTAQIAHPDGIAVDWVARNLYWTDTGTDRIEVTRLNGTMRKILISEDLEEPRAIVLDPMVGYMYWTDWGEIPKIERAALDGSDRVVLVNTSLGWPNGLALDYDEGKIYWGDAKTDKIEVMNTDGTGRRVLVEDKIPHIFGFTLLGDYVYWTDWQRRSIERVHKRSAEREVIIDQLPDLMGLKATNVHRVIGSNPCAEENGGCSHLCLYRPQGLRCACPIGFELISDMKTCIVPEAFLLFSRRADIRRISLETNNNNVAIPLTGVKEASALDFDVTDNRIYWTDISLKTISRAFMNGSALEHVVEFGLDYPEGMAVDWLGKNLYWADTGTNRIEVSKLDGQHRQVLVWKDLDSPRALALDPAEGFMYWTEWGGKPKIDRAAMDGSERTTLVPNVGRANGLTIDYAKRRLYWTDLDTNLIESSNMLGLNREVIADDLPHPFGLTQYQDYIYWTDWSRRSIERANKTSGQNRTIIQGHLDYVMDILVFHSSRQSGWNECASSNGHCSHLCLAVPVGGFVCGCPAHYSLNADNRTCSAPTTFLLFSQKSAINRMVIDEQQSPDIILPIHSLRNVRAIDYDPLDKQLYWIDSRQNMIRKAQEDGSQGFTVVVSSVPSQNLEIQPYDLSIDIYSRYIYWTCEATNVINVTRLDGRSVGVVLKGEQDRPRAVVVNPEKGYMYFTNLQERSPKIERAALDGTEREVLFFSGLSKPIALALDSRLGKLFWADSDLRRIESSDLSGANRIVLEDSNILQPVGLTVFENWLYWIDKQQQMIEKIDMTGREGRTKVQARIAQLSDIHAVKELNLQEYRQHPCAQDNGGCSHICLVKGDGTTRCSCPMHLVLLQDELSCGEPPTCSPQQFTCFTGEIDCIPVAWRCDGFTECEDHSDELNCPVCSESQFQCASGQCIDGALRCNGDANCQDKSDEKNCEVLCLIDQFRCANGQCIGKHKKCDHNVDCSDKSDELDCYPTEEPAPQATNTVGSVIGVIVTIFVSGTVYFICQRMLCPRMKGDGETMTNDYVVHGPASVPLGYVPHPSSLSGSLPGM

[3] = biological target: T2, LRP6 monomer in biotinylated nanodiscs (human, UniProt O75581 20-1439); test: BLI
T2 chain: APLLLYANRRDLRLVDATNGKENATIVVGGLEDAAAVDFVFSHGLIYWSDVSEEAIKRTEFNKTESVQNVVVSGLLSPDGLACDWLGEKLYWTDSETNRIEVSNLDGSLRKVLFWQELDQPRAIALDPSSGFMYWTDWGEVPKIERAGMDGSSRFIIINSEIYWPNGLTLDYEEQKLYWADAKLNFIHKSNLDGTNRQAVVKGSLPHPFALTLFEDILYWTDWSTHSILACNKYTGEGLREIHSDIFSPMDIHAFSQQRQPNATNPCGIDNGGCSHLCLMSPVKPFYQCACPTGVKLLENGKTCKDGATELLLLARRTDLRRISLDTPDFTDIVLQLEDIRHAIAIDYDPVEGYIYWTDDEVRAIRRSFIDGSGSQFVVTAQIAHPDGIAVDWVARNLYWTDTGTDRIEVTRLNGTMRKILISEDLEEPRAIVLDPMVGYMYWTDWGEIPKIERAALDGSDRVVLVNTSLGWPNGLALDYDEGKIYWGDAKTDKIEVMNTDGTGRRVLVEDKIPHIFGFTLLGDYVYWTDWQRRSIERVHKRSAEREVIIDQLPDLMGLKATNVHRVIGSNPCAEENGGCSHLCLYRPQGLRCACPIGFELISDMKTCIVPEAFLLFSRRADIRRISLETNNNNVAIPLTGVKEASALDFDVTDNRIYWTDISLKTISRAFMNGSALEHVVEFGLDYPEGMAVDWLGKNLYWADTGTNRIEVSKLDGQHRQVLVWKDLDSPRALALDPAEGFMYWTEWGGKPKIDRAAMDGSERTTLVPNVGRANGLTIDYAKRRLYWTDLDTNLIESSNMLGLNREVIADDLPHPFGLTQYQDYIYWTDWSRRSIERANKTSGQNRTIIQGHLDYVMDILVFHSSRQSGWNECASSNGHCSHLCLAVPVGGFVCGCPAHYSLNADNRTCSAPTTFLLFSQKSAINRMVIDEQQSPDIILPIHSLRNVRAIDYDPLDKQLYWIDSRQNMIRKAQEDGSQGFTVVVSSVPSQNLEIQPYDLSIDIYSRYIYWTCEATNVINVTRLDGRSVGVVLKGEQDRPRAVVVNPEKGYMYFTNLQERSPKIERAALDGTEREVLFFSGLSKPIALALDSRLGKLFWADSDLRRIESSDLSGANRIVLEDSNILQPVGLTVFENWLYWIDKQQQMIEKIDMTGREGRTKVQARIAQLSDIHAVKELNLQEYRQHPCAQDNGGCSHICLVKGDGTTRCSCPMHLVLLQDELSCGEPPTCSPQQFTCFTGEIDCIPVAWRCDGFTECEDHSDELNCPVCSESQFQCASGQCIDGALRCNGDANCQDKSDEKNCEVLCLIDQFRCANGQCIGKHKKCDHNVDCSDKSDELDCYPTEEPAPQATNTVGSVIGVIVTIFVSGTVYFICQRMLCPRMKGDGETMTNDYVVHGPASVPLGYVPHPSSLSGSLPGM

[4] = biological target: T2, LRP6 monomer in biotinylated nanodiscs; test: BLI; kinetic
[5] = biological target: Fzd4–LRP6 heterodimer in biotinylated nanodiscs (mouse | human) (UniProt Q61088); test: BLI; biotinylated nanodiscs on streptavidin biosensors, 0-100 nM DKK1, empty discs subtracted, 25 °C, 20 mM Hepes pH 7.4, 150 mM NaCl, 1 mM EDTA, 1 mg/ml BSA; steady state
[6] = biological target: T3, Fzd4 homodimer in biotinylated nanodiscs (mouse, UniProt Q61088 42-537); test: BLI
T3 chain: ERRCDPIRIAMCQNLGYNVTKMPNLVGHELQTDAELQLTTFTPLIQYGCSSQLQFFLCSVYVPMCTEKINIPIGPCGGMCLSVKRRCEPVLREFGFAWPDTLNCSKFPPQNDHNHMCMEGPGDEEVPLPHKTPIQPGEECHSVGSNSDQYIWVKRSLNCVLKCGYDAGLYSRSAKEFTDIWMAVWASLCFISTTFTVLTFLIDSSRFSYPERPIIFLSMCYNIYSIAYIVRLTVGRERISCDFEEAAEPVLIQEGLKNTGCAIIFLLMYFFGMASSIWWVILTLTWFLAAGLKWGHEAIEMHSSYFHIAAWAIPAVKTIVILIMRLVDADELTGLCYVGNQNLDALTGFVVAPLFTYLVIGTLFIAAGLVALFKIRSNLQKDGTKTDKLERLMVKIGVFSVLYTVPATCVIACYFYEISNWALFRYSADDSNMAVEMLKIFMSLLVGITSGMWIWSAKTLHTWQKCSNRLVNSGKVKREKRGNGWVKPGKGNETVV

[7] = biological target: T3, Fzd4 homodimer in biotinylated nanodiscs; test: BLI; biotinylated nanodiscs on streptavidin biosensors, 0-10 nM MBP–Norrin, 3 h association, 25 °C, 20 mM Hepes pH 7.4, 150 mM NaCl, 1 mM EDTA, 1 mg/ml BSA; steady state
[8] = biological target: T4, Fzd4–LRP6 heterodimer in biotinylated nanodiscs, prebound to Norrin (mouse | human | , UniProt Q61088 42-537; O75581 20-1439; Q00604 33-133); test: BLI
[9] = biological target: T4, Fzd4–LRP6 heterodimer in biotinylated …; test: BLI; remark: listed apart in the source
[10] = biological target: T1, Fzd4–LRP6 heterodimer in biotinylated …; test: BLI; without Norrin
[11] = biological target: T1, Fzd4–LRP6 heterodimer in biotinylated …; test: BLI; kinetic, without Norrin
[12] = biological target: Fzd4–LRP6 heterodimer in biotinylated nanodiscs (mouse | human) (UniProt Q61088); test: BLI; nanodiscs with 5% PIP2 on SMAP biosensors, 0.01 to 32 μM DEP, empty nanodiscs subtracted, 25 °C, 20 mM Hepes pH 7.4, 150 mM NaCl, 1 mM EDTA, 1 mg/ml BSA; steady state
[13] = biological target: Fzd4–LRP6 heterodimer in biotinylated nanodiscs, prebound to Norrin (mouse | human | not stated) (UniProt Q61088); test: as above

- percent of the expressed protein GFP dimerized [1]: 50%
Molecule: FLAG-Fzd4-3C-sGFP11-PDZ (Sf9) (from UniProt Q61088 42-537) (receptor)

- koff [2]: 0.0057 s⁻¹
- koff [3]: 0.012 s⁻¹
- Kd [4]: 16.7 nM
- Kd [5]: 5.6 nM
B1: Dikkopf1 (DKK1) (ligand)
chain: TLNSVLNSNAIKNLPPPLGGAAGHPGSAVSAAPGILYPGGNKYQTIDNYQPYPCAEDEECGTDEYCASPTRGGDAGVQICLACRKRRKRCMRHAMCCPGNYCKNGICVSSDQNHFRGEIEETITESFGNDHSTLDGYSRRTTLSSKMYHTKGQEGSVCLRSSDCASGLCCARHFWSKICKPVLKEGQVCTKHRRKGSHGLEIFQRCYCGEGLSCRIQKDHHQASNSSRLHTCQRH

- koff [6]: 0.00034 s⁻¹
- Kd [7]: 0.46 nM
B2: MBP–Norrin (ligand)
chain: DSDPRRCMRHHYVDSISHPLYKCSSKMVLLARCEGHCSQASRSEPLVSFSTVLKQPFRSSCHCCRPQTSKLKALRLRCSGGMRLTATYRYILSCHCEECNS

- koff [8]: 0.013 s⁻¹
- Kd [9]: 420 nM
- koff [10]: 0.0095 s⁻¹
- Kd [11]: 260 nM
- Kd [12]: 220 nM
- Kd [13]: 198 nM
B3: Dishevelled-2 (Dvl2) DEP domain (domain or fragment)
chain: GLSVHMDMASVTKAMAAPESGLEVRDRMWLKITIPNAFLGSDVVDWLYHHVEGFPERREARKYASGLLKAGLIRHTVNKITFSEQCYYVFGDLSG
